Results on 4 molecules are retold here after patent US20250017962A1 (US Dept. of Health and Human Services, published 2025).

For one series, the target named is T1, GPC1-hFc (UniProt P35052 24-530, limits assumed).
T1 construct: not shown: human Fc tag (hFc)
T1 sequence (looked up): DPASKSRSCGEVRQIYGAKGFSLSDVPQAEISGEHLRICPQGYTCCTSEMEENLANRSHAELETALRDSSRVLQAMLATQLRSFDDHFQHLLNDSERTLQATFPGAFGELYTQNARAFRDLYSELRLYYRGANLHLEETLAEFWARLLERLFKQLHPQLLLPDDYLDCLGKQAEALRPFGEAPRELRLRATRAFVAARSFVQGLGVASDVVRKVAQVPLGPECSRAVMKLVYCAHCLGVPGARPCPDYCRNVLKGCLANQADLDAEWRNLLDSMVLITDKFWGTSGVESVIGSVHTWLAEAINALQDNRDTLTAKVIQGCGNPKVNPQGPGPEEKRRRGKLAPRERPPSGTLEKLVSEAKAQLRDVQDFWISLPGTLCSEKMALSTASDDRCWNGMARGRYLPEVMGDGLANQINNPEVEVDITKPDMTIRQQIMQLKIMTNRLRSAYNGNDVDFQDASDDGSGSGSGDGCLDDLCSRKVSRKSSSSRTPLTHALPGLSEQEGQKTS
In words: flow cytometry, hFc-tagged protein on CAR-expressing Jurkat cells. The protocol: To test antigen specificity and cell binding capacity of the engineered GPC3-targeted CARs, T cell lines (Jurkat) transfected with the CAR constructs were developed and binding to GPC3 tagged with human Fc (GPC3-hFc) was assessed. First, successful transduction (95-98%) of all of the CAR constructs was confirmed using the truncated EGFR marker expressed by the CAR lentivirus. […] All CAR T cells specifically bound to GPC3-hFc (FIG. 1A) and not GPC1-hFc (FIG. 1B) at the same concentrations.
A general note: Flow cytometry measures light scatter and fluorescence of single cells or particles in a stream.

The target in series [1] is glypican-3 (GPC3) on HCC cell lines Hep3B, Huh7 and HepG2 (human, UniProt P51654 25-580). Briefly: cell-based or functional assay.
Chain of glypican-3 (GPC3) on HCC cell lines Hep3B, Huh7 and HepG2 (P51654 25-580): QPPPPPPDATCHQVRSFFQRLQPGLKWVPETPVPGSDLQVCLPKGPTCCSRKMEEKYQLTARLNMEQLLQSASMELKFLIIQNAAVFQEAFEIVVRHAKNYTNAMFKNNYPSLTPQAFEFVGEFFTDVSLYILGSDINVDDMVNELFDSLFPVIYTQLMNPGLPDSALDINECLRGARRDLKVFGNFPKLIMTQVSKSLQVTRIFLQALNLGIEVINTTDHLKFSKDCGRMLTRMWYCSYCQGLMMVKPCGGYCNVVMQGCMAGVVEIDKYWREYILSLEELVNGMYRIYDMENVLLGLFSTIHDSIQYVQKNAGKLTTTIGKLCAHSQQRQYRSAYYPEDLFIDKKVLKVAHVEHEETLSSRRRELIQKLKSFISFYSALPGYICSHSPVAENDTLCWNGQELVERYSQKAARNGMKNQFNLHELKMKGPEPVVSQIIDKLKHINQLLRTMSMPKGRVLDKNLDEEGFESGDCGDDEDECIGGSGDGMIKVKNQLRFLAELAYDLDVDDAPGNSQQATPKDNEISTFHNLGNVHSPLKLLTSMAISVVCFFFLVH

B1: hYP7-CD8H-CD8TM CAR (other)
chain: HMEVQLVESGGGLVQPGGSLRLSCAASGFTFNKNAMNWVRQAPGKGLEWVGRIRNKTNNYATYYADSVKARFTISRDDSKNSLYLQMNSLKTEDTAVYYCVAGNSFAYWGQGTLVTVSAGGGGSGGGGSGGGGSDIVMTQSPDSLAVSLGERATINCKSSQSLLYSSNQKNYLAWYQQKPGQPPKLLIYWASSRESGVPDRFSGSGSGTDFTLTISSLQAEDVAVYYCQQYYNYPLTFGQGTKLEIKTSTTTPAPRPPTPAPTIASQPLSLRPEACRPAAGGAVHTRGLDFACDIYIWAPLAGTCGVLLLSLVITKRGRKKLLYIFKQPFMRPVQTTQEEDGCSCRFPEEEEGGCELRVKFSRSADAPAYQQGQNQLYNELNLGRREEYDVLDKRRGRDPEMGGKPRRKNPQEGLYNELQKDKMAEAYSEIGMKGERRRGKGHDGLYQGLSTATKDTYDALHMQALPPR
As for B1, in the series with GPC1-hFc, the binding result is “no binding (tested: 1, 2 and 5 µg/mL)”.

B2: HN3-IgG4H-CD28TM CAR (other)
chain: HMQVQLVQSGGGLVQPGGSLRLSCAASYFDFDSYEMSWVRQAPGKGLEWIGSIYHSGSTYYNPSLKSRVTISRDNSKNTLYLQMNTLRAEDTATYYCARVNMDRFDYWGQGTLVTVSSTSESKYGPPCPPCPFWVLVVVGGVLACYSLLVTVAFIIFWVKRGRKKLLYIFKQPFMRPVQTTQEEDGCSCRFPEEEEGGCELRVKFSRSADAPAYQQGQNQLYNELNLGRREEYDVLDKRRGRDPEMGGKPRRKNPQEGLYNELQKDKMAEAYSEIGMKGERRRGKGHDGLYQGLSTATKDTYDALHMQALPPR
notes: also called HN3-IgG4-CD28TM; HN3-IgGH-CD28TM
As for B2, the “potency (killing) relative to HN3-CD8H-CD28TM” value in series [1] lay in the range of 10 to 20%. Further, in the series with GPC1-hFc, the binding result is “no binding (tested: 1, 2 and 5 µg/mL)”.

B3: HN3-CD8H-CD28TM CAR (other)
chain: HMQVQLVQSGGGLVQPGGSLRLSCAASYFDFDSYEMSWVRQAPGKGLEWIGSIYHSGSTYYNPSLKSRVTISRDNSKNTLYLQMNTLRAEDTATYYCARVNMDRFDYWGQGTLVTVSSTSTTTPAPRPPTPAPTIASQPLSLRPEACRPAAGGAVHTRGLDFACDFWVLVVVGGVLACYSLLVTVAFIIFWVKRGRKKLLYIFKQPFMRPVQTTQEEDGCSCRFPEEEEGGCELRVKFSRSADAPAYQQGQNQLYNELNLGRREEYDVLDKRRGRDPEMGGKPRRKNPQEGLYNELQKDKMAEAYSEIGMKGERRRGKGHDGLYQGLSTATKDTYDALHMQALPPR
In the case of B3, in series [1], the “killing relative to HN3-CD8H-CD8TM CAR T cells” value is 40%. For the same molecule, the binding result in the series with GPC1-hFc is “no binding (tested: 1, 2 and 5 µg/mL)”.

B4: HN3-IgG4H-CD8TM CAR (other)
chain: HMQVQLVQSGGGLVQPGGSLRLSCAASYFDFDSYEMSWVRQAPGKGLEWIGSIYHSGSTYYNPSLKSRVTISRDNSKNTLYLQMNTLRAEDTATYYCARVNMDRFDYWGQGTLVTVSSTSESKYGPPCPPCPIYIWAPLAGTCGVLLLSLVITKRGRKKLLYIFKQPFMRPVQTTQEEDGCSCRFPEEEEGGCELRVKFSRSADAPAYQQGQNQLYNELNLGRREEYDVLDKRRGRDPEMGGKPRRKNPQEGLYNELQKDKMAEAYSEIGMKGERRRGKGHDGLYQGLSTATKDTYDALHMQALPPR
For the molecule B4, the binding result in the series with GPC1-hFc is “no binding (tested: 1, 2 and 5 µg/mL)”.
